B1: 05RS10-11 (ssRNA)
RNA: GGGGCGGAUCCAGACUGGUGUGAUCAUAUUAAUAAGACGCUUCCAGGUACGUCGCUGUUGGGCCCUAAAGACAAGCUUC
B2: 05DS10-18 (ssDNA)
DNA: GCGGATCCAGACTGGTGTCCTATCTATAATTTTGCAGTCCACGTTTCTCTTGTGTGTGCCCTAAAGACAAGCTTC
B3: 05DS10-21 (ssDNA)
DNA: GCGGATCCAGACTGGTGTGGAGGTTAGCCGAAACACGTATACGCGTATTTATCCTCGGGCCCTAAAGACAAGCTTC
B4: 05RS10-19 (ssRNA)
RNA: GGGGCGGAUCCAGACUGGUGUAAUCGAUCUUGCAUGCUAUUCGUCAAUCAACUCUUGCCGGCCCUAAAGACAAGCUUC
B5: 05RS10-30 (ssRNA)
RNA: GGGGCGGAUCCAGACUGGUGUUUCCGCAAAGAGUGGUCUUUGUUAAUGUCAGGUUUCUUCGGCCCUAAAGACAAGCUUC
B6: 05DS10-05 (ssDNA)
DNA: GCGGATCCAGACTGGTGTACCTGTTAGCAAGAGTTTATTATGTAAAGATATCCGTTGGGCCCTAAAGACAAGCTTC
B7: 05RS10-18 (ssRNA)
RNA: GGGGCGGAUCCAGACUGGUGUUUAAUUAUGUAAGUAAAUUGUUUUUUGACUCUCGCAUUGGGCCCUAAAGACAAGCUUC
B8: 05DS10-12 (ssDNA)
DNA: GCGGATCCAGACTGGTGTGCAGGTATGCCGGATCATGTCGTGAAAGTATCCATTTCTCGCCCTAAAGACAAGCTTC
B9: 05DS10-01 (ssDNA)
DNA: GCGGATCCAGACTGGTGTGCACAGCACATGCATTACTGCGGTAATCCGTGTCCTTTGTGCCCTAAAGACAAGCTTC
B10: 05RS10-34 (ssRNA)
RNA: GGGGCGGAUCCAGACUGGUGUGAACACAGACGAGAACGUUGCAUAAAACCGCUUUUUUGGGCCCUAAAGACAAGCUUC
B11: 05RS10-04 (ssRNA)
RNA: GGGGCGGAUCCAGACUGGUGUCAUUUAGCAAAAACACUUGUAUAAUUCAAGUCGAUGUUGGGCCCUAAAGACAAGCUUC
B12: 05DS10-26 (ssDNA)
DNA: GCGGATCCAGACTGGTGTGGGAATGTTGTTTATGTATTTGTTCTGAGCTCTACCTTTGCCCTAAAGACAAGCTTC
B13: 05DS10-22 (ssDNA)
DNA: GCGGATCCAGACTGGTGTCAATGGTACTCTTCATTGTAGTCGCTTTGTTTATTAGCCGGCCCTAAAGACAAGCTTC
B14: 05DS10-02 (= 05DS10-03) (ssDNA)
DNA: GCGGATCCAGACTGGTGTACTGGGCTAGTTGCCTCTGCAGATTAGATGATGACAGTGGCCCTAAAGACAAGCTTC
B15: 05RS10-09 (ssRNA)
RNA: GGGGCGGAUCCAGACUGGUGUACACGGUGUUUAGUAGUUUAAUGAAUCUUUUAGUUCUUGGGCCCUAAAGACAAGCUUC
B16: 05RS10-32 (ssRNA)
RNA: GGGGCGGAUCCAGACUGGUGUCUUCCUGCUUGUGUUAUUUUCUAUUGUCGUGCGUGUUCGGGCCCUAAAGACAAGCUUC
B17: 05RS10-32-32P (ssRNA)
RNA: B16 RNA

What was measured:
[1] = molecular target: T1, PCBP-2 (poly(C)-binding protein 2) (UniProt Q15366 1-365); test: ELONA-RTqPCR; Kd in range 24.1-276.5 nM, value in figure; ELONA: 100 mM HEPES pH 7.4, 100 mM NaCl, 6 mM MgCl2, 37 °C, 60 min, PCBP-2 (10 pmol) immobilized on Cu2+ plates; EMSA: 40 mM Tris-HCl pH 7.5, 250 mM NaCl, 0.1%; conditions: protein: recombinant; tags: N-terminal 6xHis
T1 sequence (Q15366 whole entry): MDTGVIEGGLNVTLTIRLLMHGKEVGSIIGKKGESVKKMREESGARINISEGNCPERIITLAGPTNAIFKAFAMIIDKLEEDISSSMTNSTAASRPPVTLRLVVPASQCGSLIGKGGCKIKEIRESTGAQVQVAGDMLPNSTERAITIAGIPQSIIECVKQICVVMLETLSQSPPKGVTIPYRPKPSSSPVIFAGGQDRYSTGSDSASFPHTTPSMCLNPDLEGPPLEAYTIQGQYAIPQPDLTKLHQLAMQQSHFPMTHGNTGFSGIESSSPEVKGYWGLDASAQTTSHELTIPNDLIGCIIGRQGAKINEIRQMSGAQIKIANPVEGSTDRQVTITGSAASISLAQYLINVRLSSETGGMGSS

[2] = molecular target: T1, PCBP-2 (poly(C)-binding protein 2); test: ELONA-qPCR; Kd in range 8.4-89.9 nM, value in figure; ELONA: 100 mM HEPES pH 7.4, 100 mM NaCl, 6 mM MgCl2, 37 °C, 60 min, PCBP-2 (10 pmol) immobilized on Cu2+ plates; EMSA: 40 mM Tris-HCl pH 7.5, 250 mM NaCl, 0.1%; conditions: protein: recombinant; tags: N-terminal 6xHis
[3] = molecular target: T1, PCBP-2 (poly(C)-binding protein 2); test: ELONA-qPCR; 6 mM Mg2+; ELONA: 100 mM HEPES pH 7.4, 100 mM NaCl, 6 mM MgCl2, 37 °C, 60 min, PCBP-2 (10 pmol) immobilized on Cu2+ plates; EMSA: 40 mM Tris-HCl pH 7.5, 250 mM NaCl, 0.1%; conditions: protein: recombinant; tags: N-terminal 6xHis
[4] = molecular target: T1, PCBP-2 (poly(C)-binding protein 2); test: ELONA-qPCR; Kd in range 8.4-89.9 nM, value in figure; highest DNA Bmax; ELONA: 100 mM HEPES pH 7.4, 100 mM NaCl, 6 mM MgCl2, 37 °C, 60 min, PCBP-2 (10 pmol) immobilized on Cu2+ plates; EMSA: 40 mM Tris-HCl pH 7.5, 250 mM NaCl, 0.1%; conditions: protein: recombinant; tags: N-terminal 6xHis
[5] = molecular target: T1, PCBP-2 (poly(C)-binding protein 2); test: ELONA-RTqPCR; 6 mM Mg2+; ELONA: 100 mM HEPES pH 7.4, 100 mM NaCl, 6 mM MgCl2, 37 °C, 60 min, PCBP-2 (10 pmol) immobilized on Cu2+ plates; EMSA: 40 mM Tris-HCl pH 7.5, 250 mM NaCl, 0.1%; conditions: protein: recombinant; tags: N-terminal 6xHis
[6] = molecular target: T1, PCBP-2 (poly(C)-binding protein 2); test: ELONA-RTqPCR; Kd in range 24.1-276.5 nM, value in figure; highest RNA Bmax; ELONA: 100 mM HEPES pH 7.4, 100 mM NaCl, 6 mM MgCl2, 37 °C, 60 min, PCBP-2 (10 pmol) immobilized on Cu2+ plates; EMSA: 40 mM Tris-HCl pH 7.5, 250 mM NaCl, 0.1%; conditions: protein: recombinant; tags: N-terminal 6xHis
[7] = molecular target: T1, PCBP-2 (poly(C)-binding protein 2); test: EMSA; 0.1-27.1 nM protein; two retarded complexes; ELONA: 100 mM HEPES pH 7.4, 100 mM NaCl, 6 mM MgCl2, 37 °C, 60 min, PCBP-2 (10 pmol) immobilized on Cu2+ plates; EMSA: 40 mM Tris-HCl pH 7.5, 250 mM NaCl, 0.1%; conditions: protein: recombinant; tags: N-terminal 6xHis; label: 32P-CTP uniform

Row | Binder | binding result [1] | binding result [2] | also measured
1 | B1 | binds |  | 
2 | B2 |  | binds | 
3 | B3 |  |  | Kd [3]: 8.4 nM
4 | B4 | binds |  | 
5 | B5 | binds |  | 
6 | B6 |  |  | binding result [4]: binds
7 | B7 | binds |  | 
8 | B8 |  | binds | 
9 | B9 |  | binds | 
10 | B10 | binds |  | 
11 | B11 | binds |  | 
12 | B12 |  | binds | 
13 | B13 |  | binds | 
14 | B14 |  | binds | 
15 | B15 |  |  | Kd [5]: 24.1 nM
16 | B16 |  |  | binding result [6]: binds
17 | B17 |  |  | binding result [7]: binds
